{
  "source": "patent CN114456264A",
  "about": "(INST OF MICROBIOLOGY OF CHINESE ACADEMY OF SCIENCES, dated 2022)",
  "molecular_target": "SARS-CoV RBD蛋白 (SARS-CoV, UniProt P59594 306-527)",
  "assay": "SPR, Biacore 8K, RBD on SA chip, antibody as analyte",
  "data": [
    {"binder": "抗体IMCAS-364 (antibody, V domains shown) VH: QVQLQESGGGVVQPGRSLRLSCAASGFTFSRYGMHWVRQAPGKGLEWVAVIWYDGSNKYYADSVKGRFTISRDNSKNTLYLQMNSLRADDTAVYYCAKQEGTYCSGGSCYSGLDYWGQGTLVTVSS VL: not shown", "values": [
      {"measurement": "Kd", "value": 8.17, "unit": "nM"}
    ]}
  ]
}
